This data set can be described thus: self-splicing fitness, log relative to wild type (ln ratio); higher = more splicing; Tetrahymena group I intron in knt gene, E. coli kanamycin selection, DiMSum; sequences stand for … in CUCUCU…GGAGGGAAAAGUUAUCAGGCAUGCACCUGGUAGCUAGUCUUUAAACCAAUAGAUUGCAUCGGUUUAAAAGGCAAGACCGUCAAAUUGCGGGAAAGGGGUCAACAGCCGUUCAGUACCAAGUCUCAGGGGAAACUUUGAGAUGGCCUUGCAAAGGGUAUGGUAAUAAGCUGACGGACAUGGUCCUAACCACGCAGCCAAGUCCUAAGUCAACAGAUCUUCUGUUGAUAUGGAUGCAGUUCACAGACUAAAUGUCGGUCGGGGAAGAUGUAUUCUUCUCAUAAGAUAUAGUCGGACCUCUCCUUAAUGGGAGCUAGCGGAUGAAGUGAUGCAACACUGGAGCCGCUGGGAACUAAUUUGUAUGCGAAAGUAUAUUGAUUAGUUUUGGAGUACUCGUGGUCG
The essentials:
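Fitness was computed with DiMSum as the error-weighted combination of replicate fold changes, kanamycin versus none, each normalised to wild type. The library randomised all eight intron nucleotides of the P1ex region, with the intron placed in the knt kanamycin-resistance gene on pET-22b(+) in E. coli BL21(DE3). Six replicate transformations were grown overnight at 37°C or 30°C on LB agar with or without 25 μg/mL kanamycin, plus 100 μg/mL carbenicillin, 50 μM IPTG and 0.2% rhamnose. Pooled colonies were amplicon-sequenced on an Illumina HiSeq 2500.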

± gives the uncertainty stated by the source.

For the sequence CUAAAGCAAUAUUACGAAGU, the “self-splicing fitness (ln)” value reads like this: (30 °C) -4.21 ± 0.26; (37 °C) -2.57 ± 0.28.
On the same counts, the results for GGUUAGCAAUAUUACGCACG are -0.656 ± 0.11 and -0.507 ± 0.13.
Turning to UCGUAGCAAUAUUACGAUGC, the “self-splicing fitness (ln)” value runs as follows: (30 °C) -4.1 ± 0.33; (37 °C) -2.27 ± 0.27.
On the same counts, the results for CGUGAGCAAUAUUACGCACA are -1.32 ± 0.16 and -0.702 ± 0.18.
For AAAGAGCAAUAUUACGUCGU the same measures were -3.75 ± 0.26 and -2.62 ± 0.17.
As to AUGAAGCAAUAUUACGAAGG, the “self-splicing fitness (ln)” value by setting is: (30 °C) -2.57 ± 0.18; (37 °C) -0.569 ± 0.19.
On the same counts, the results for GCGCAGCAAUAUUACGCUAA are -1.42 ± 0.085 and -1.06 ± 0.11.
As to CCGGAGCAAUAUUACGCUGC, the “self-splicing fitness (ln)” value (37 °C) is -2.04 ± 0.38.
Take GUCCAGCAAUAUUACGGAAG: the “self-splicing fitness (ln)” value by setting is: (30 °C) -0.697 ± 0.079; (37 °C) 0.124 ± 0.084.
As for GCUUAGCAAUAUUACGAUCA, the “self-splicing fitness (ln)” value reads like this: (30 °C) -1.1 ± 0.14; (37 °C) -0.788 ± 0.16.
As for AUAAAGCAAUAUUACGUAUA, the “self-splicing fitness (ln)” value reads like this: (30 °C) -1.91 ± 0.099; (37 °C) -0.351 ± 0.12.
On the same counts, the results for CGGAAGCAAUAUUACGUGGC are -3.67 ± 0.18 and -2.54 ± 0.23.
For CUUUAGCAAUAUUACGCAUU the same measures were -4.72 ± 0.31 and -3.51 ± 0.23.
For UUGAAGCAAUAUUACGAUUU the same measures were -1.58 ± 0.17 and -0.941 ± 0.18.
Regarding ACGCAGCAAUAUUACGUGAU, the “self-splicing fitness (ln)” value was -1.78 ± 0.039 (30 °C) and -0.783 ± 0.055 (37 °C).
Consider CAUGAGCAAUAUUACGGGGG, for which the “self-splicing fitness (ln)” value is, setting by setting: (30 °C) -2.64 ± 0.23; (37 °C) -2.64 ± 0.3.
For UACAAGCAAUAUUACGAGCU the same measures were -3.19 ± 0.12 and -1.58 ± 0.11.
For UUUCAGCAAUAUUACGGAUA the same measures were -0.515 ± 0.11 and -0.565 ± 0.11.
Take UUACAGCAAUAUUACGACAG: the “self-splicing fitness (ln)” value runs as follows: (30 °C) -1.02 ± 0.068; (37 °C) -0.222 ± 0.083.
For UGAGAGCAAUAUUACGUUCG the same measures were -2.08 ± 0.13 and -1.3 ± 0.15.
Consider UUCCAGCAAUAUUACGUCUA, for which the “self-splicing fitness (ln)” value is -0.638 ± 0.082 (30 °C) and 0.0519 ± 0.093 (37 °C).
On the same counts, the results for CGGCAGCAAUAUUACGAGAC are -3.78 ± 0.22 and -3.43 ± 0.35.
For AUAGAGCAAUAUUACGGCGU the same measures were 0.102 ± 0.079 and 0.527 ± 0.12.
On the same counts, the results for ACGUAGCAAUAUUACGGGCC are -2.66 ± 0.14 and -0.629 ± 0.12.
Regarding ACACAGCAAUAUUACGGUUG, the “self-splicing fitness (ln)” value by setting is: (30 °C) -1.37 ± 0.066; (37 °C) -1.31 ± 0.11.
For GGACAGCAAUAUUACGGUGC the same measures were -1.58 ± 0.094 and -0.8 ± 0.11.
With AACUAGCAAUAUUACGCUGC, the “self-splicing fitness (ln)” value by setting is: (30 °C) -2.59 ± 0.14; (37 °C) -2.29 ± 0.18.
For UUUUAGCAAUAUUACGGACG the same measures were -0.75 ± 0.2 and -0.45 ± 0.2.
For GGAUAGCAAUAUUACGGAAC the same measures were -1.9 ± 0.22 and -2.03 ± 0.29.
For UUGCAGCAAUAUUACGUGUA the same measures were -1.52 ± 0.11 and -1.07 ± 0.1.
Consider CAAUAGCAAUAUUACGUACU, for which the “self-splicing fitness (ln)” value is, setting by setting: (30 °C) -3.33 ± 0.13; (37 °C) -1.8 ± 0.13.
For ACGUAGCAAUAUUACGUUCA the same measures were -2.31 ± 0.13 and -0.777 ± 0.12.
For GGUGAGCAAUAUUACGCGGC, the “self-splicing fitness (ln)” value runs as follows: (30 °C) -2.2 ± 0.27; (37 °C) -1.9 ± 0.28.
As to AAUGAGCAAUAUUACGUCGA, the “self-splicing fitness (ln)” value is, setting by setting: (30 °C) -3.56 ± 0.21; (37 °C) -2.84 ± 0.23.
As to CCUUAGCAAUAUUACGGAAC, the “self-splicing fitness (ln)” value (37 °C) is -2.73 ± 0.44.
Consider ACUCAGCAAUAUUACGAGUU, for which the “self-splicing fitness (ln)” value was -4.72 ± 0.21 (30 °C) and -2.36 ± 0.17 (37 °C).
On the same counts, the results for AAAUAGCAAUAUUACGAUCG are -0.864 ± 0.091 and -0.18 ± 0.11.
Consider UCUUAGCAAUAUUACGGAUG, for which the “self-splicing fitness (ln)” value runs as follows: (30 °C) -3.74 ± 0.28; (37 °C) -1.76 ± 0.17.

The record behind these values is the supplement of paper PMC7877785.
